Literature values as cited in article PMC8330535.

Biological target: ARNT PAS-B (Homo sapiens) (UniProt P27540)
Conditions: cited from earlier work

Sequence of HIF-1α PAS-B (Q16665 238-349): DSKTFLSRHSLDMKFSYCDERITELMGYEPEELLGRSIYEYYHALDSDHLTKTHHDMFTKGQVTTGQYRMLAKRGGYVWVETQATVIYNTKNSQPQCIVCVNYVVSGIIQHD
Sequence of ARNT PAS-B (Homo sapiens) (P27540 356-470): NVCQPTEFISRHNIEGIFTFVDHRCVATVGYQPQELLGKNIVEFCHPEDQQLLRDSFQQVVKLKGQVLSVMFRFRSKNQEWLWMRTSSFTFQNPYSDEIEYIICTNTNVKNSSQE

Substance: HIF-1α PAS-B (from UniProt Q16665)
- Kd: 125 nM
